Test results: publication PMC6335053

Target: Human full-length GIRK4 (purified) (human) (UniProt P48544)
UniProt P48544, sequence (P48544 whole entry): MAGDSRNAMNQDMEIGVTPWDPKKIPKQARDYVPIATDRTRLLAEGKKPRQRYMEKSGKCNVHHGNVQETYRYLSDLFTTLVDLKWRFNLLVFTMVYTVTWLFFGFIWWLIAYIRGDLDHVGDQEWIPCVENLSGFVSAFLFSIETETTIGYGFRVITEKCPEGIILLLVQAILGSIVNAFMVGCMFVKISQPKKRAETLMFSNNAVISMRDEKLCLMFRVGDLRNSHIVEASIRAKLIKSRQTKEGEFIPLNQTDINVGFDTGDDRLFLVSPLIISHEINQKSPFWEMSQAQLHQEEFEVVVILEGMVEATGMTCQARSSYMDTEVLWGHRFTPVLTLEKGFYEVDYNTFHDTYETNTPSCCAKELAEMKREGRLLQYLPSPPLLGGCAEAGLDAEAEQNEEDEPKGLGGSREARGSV

**Q.** Which inward GIRK current in planar lipid bilayers: increase on fusing further Gβγ vesicles to a bilayer holding GIRK and Gβγ at 1:0.1 (wt:wt), with 32 µM C8-PIP2 and 32 mM Na+ does the source give for “Human lipid-anchored Gβ1γ2 (from UniProt P62873 1-340; P59768 1-71) (complex)” here?
**A.** 5 fold
